In the test the target is T1, Human CD40 Ligand/TNFSF5 Protein, His, Flag Tag, active trimer (MALS verified) (human, UniProt P29965 108-261, limits assumed).
T1 construct: Bought protein, described as an active trimer; The order of the CD40L part and the tags is not known; also called CD40L protein; CD40L (Acro CDL-H52Db); not shown: His tag and Flag tag
T1 sequence (looked up): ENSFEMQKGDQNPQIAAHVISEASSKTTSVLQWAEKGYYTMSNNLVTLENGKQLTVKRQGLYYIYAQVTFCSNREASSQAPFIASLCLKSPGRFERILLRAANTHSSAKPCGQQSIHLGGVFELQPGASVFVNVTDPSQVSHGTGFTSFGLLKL
Kind of test: bio-layer interferometry (ForteBio); antibody 100 nM, human CD40L 100 nM, 30 C. (In BLI a coated tip is dipped into the sample, and binding shifts an interference pattern.)

B1: Hz47E2 (antibody, human IgG1, kappa, L234A L235A, V domains shown)
VH: EVQLVESGGGLVKPGGSLRLSCAASGFTFSDYAMSWVRQAPGKGLEWVSEISTVHTYTYYSDAVAGRFTISRDNAKNSLYLQMNSLRAEDTAVYYCARDRVLDYWGQGTLVTVSS
VL: DIVMTQSPDSLAVSLGERATINCRASESVEYYDTSLMQWYQQKPGQPPKLLIYAASNLESGVPDRFSGSGSGTDFTLTISSLQAEDVAVYYCQQTKKLPWTFGQGTKVEIKR
notes: Expressed in ExpiCHO cells; also called Antibody Hz47E2; humanized anti-CD40L antibody Hz47E2
One may read the Kd as the free concentration of one partner at which half of the binding sites on the other are occupied at equilibrium, for simple one-to-one binding. A high value points to lower affinity. For B1, the dissociation constant Kd came out at 315 pM.

B2: Hz33B9C5 (antibody, human IgG1, kappa, L234A L235A, V domains shown)
VH: QVQLVESGGGLVKPGGSLRLSCAASGFTFSDYYMYWIRQAPGKGLEWVSTISGGGTYTYSPDSVKGRFTISRDNAKNSLYLQMNSLRAEDTAVYYCARGEPGLAYWGQGTLVTVSS
VL: DIVMTQSPDSLAVSLGERATINCKASQSVDYYGDSYMHWYQQKPGQPPKLLIYASSNLESGVPDRFSGSGSGTDFTLTISSLQAEDVAVYYCQQSHEDPWTFGGGTKVEIKR
notes: Expressed in ExpiCHO cells; also called Antibody Hz33B9C5; humanized anti-CD40L antibody Hz33B9C5
With B2, the affinity, expressed as Kd, was 297 pM.

For the origin of these results see patent publication EP4703385A1 (Fortvita Biologics Inc., dated 2026).
